According to patent publication US20260234222A1 (LEYDEN LABORATORIES B V, published 2026):
Like-named read-outs stand apart in the source and are kept apart here.

B1: Parental mAb 1 (antibody, V domains shown)
VH: QEQLVQSGAEVKKPGASVKVSCKSSGFTFSYFYLHWVRQAPGQGLEWMGIINPRGDGTRYAQKFQGRVTMTRDASTGTLYMELRSLRSEDTAVYYCARGADHGAFDIWGQGTMVTVSS
VL: EIVLTQSPGTLSLSPGERATLSCRASQSVRRNYFAWYQQKRGQAPRLLIYDASTRATGIPDRFSGSGSGTDFTLTISRLEPEDFAVYYCQQYDSSPPMYIFGQGTKLEIK
notes: also called antibody according to the invention; first parental antibody
B2: Parental mAb 2 (antibody, V domains shown)
VH: QMQLMQSGAEVKKPGASVTVSCKASGDTFSDYRIHWVRQAPGQGLEWMGRMNPKSGDTNFAQKFQGRVTMTRDMSINTAYMTLSGLTFDDTALYYCASLLIVGGFDPLDDFEVWGQGTMVTISS
VL: QSALTQPPSASGSPGQSVTISCSGTSSDVGGYNFVSWYQHHPGKAPKILIYEVTKRPSGVPDRFSGSKSGNTASLTVSGLQAEDEADYYCSSYGGTNNLLFGGGTKLTVL
B3: Bispecific 1 (bispecific antibody)
heavy 1: not shown
light 1: EIVLTQSPGTLSLSPGERATLSCRASQSVRRNYFAWYQQKRGQAPRLLIYDASTRATGIPDRFSGSGSGTDFTLTISRLEPEDFAVYYCQQYDSSPPMYIFGQGTKLEIKSSASTKGPSVFPLAPSSKSTSGGTAALGCLVKDYFPEPVTVSWNSGALTSGVHTFPAVLQSSGLYSLSSVVTVPSSSLGTQTYICNVNHKPSNTKVDKKVEPKSC
heavy 2: not shown
light 2: QSALTQPPSASGSPGQSVTISCSGTSSDVGGYNFVSWYQHHPGKAPKILIYEVTKRPSGVPDRFSGSKSGNTASLTVSGLQAEDEADYYCSSYGGTNNLLFGGGTKLTVLGQPKAAPSVTLFPPSSEELQANKATLVCLISDFYPGAVTVAWKADSSPVKAGVETTTPSKQSNNKYAASSYLSLTPEQWKSHRSYSCQVTHEGSTVEKTVAPTECS

How the values were obtained:
Experiment in all cases: cell-based or functional assay
[1] = molecular target: T1, SARS-CoV-2 Omicron BA.4/5 spike (SARS-CoV-2 Omicron BA.4/5)
[2] = molecular target: T1, SARS-CoV-2 Omicron BA.4/5 spike; remark: listed apart in the source
[3] = molecular target: T1, SARS-CoV-2 Omicron BA.4/5 spike; remark: listed apart in the source
[4] = molecular target: SARS-CoV-2 Omicron XBB.1.1 spike (SARS-CoV-2 Omicron XBB.1.1)
[5] = molecular target: SARS-CoV-2 Delta Spike antigen (SARS-CoV-2 Delta)
[6] = molecular target: SARS-CoV-2 Delta Spike antigen (SARS-CoV-2 Delta); remark: listed apart in the source

| Binder | Pseudovirion neutralization IC50 [1] [µg/mL] | Live virus neutralization IC50 [2] [µg/mL] | Pseudovirion neutralization IC50 [3] [µg/mL] | Pseudovirion neutralization IC50 [4] [µg/mL] | Live virus neutralization IC50 [5] [µg/mL] | Pseudovirion neutralization IC50 [6] [µg/mL] |
| --- | --- | --- | --- | --- | --- | --- |
| B1 | 4.13 | 2.92 | 4.13 | 4.85 | – | – |
| B2 | – | 4.62 | 7.56 | 20.6 | 16.1 | 0.488 |
| B3 | – | 4.85 | 5.14 | 11.9 | 14.2 | 0.307 |
